Laboratory results published in publication PMC8812904.

Key:
[1] = confocal counting of punctate bodies, 2 dpai; settings: glycan lost; control: AtVSR4-myc co-expression
[2] = qRT-PCR of TuMV (+) and (-) RNA, N. benthamiana; settings: glycan lost; control: AtVSR4-myc co-expression
[3] = immunoblot with TBSV P19 co-expression, 2 dpai; settings: glycan lost; control: AtVSR4 wild type with P19
[4] = GFP fluorescence under UV, N. benthamiana, 3 dpai; settings: glycan lost; control: AtVSR4-myc co-expression
[5] = immunoblot of TuMV CP, N. benthamiana; settings: glycan lost; control: AtVSR4-myc co-expression
[6] = anti-myc immunoblot, N. benthamiana, 2 dpai; settings: glycan lost; control: AtVSR4-myc wild type
[7] = symptom observation, 16 dpi; settings: glycan lost; control: AtVSR4oe transgenic Arabidopsis
[8] = qRT-PCR of TuMV RNA, transgenic Arabidopsis, 16 dpi; settings: glycan lost; control: AtVSR4oe transgenic Arabidopsis

B1: AtVSR4 (vacuolar sorting receptor 4): AtVSR4TM (protein)
parent chain: MKQLLCYLPWLLLLSLVVSPFNEARFVVEKNSLSVTSPESIKGTHDSAIGNFGIPQYGGSMAGTVVYPKENQKSCKEFSDFSISFKSQPGALPTFLLVDRGDCFFALKVWNAQKAGASAVLVADNVDEPLITMDTPEEDVSSAKYIENITIPSALVTKGFGEKLKKAISGGDMVNLNLDWREAVPHPDDRVEYELWTNSNDECGVKCDMLMEFVKDFKGAAQILEKGGFTQFRPHYITWYCPHAFTLSRQCKSQCINKGRYCAPDPEQDFSSGYDGKDVVVENLRQLCVYKVANETGKPWVWWDYVTDFQIRCPMKEKKYNKDCAESVIKSLGIDSRKIDKCMGDPDADLDNPVLKEEQDAQVGKGTRGDVTILPTLVVNNRQYRGKLEKSAVLKALCSGFEESTEPAICLSTDMETNECLDNNGGCWQDKSANITACKDTFRGKVCVCPIVDGVRFKGDGYSHCEPSGPGRCTINNGGCWHEERDGHAFSACVDKDSVKCECPPGFKGDGVKKCEDINECKEKKACQCPECSCKNTWGSYECSCSGDLLYMRDHDTCISKTGSQVKSAWAAVWLIMLSLGLAAAGAYLVYKYRLRQYMDSEIRAIMAQYMPLDSQPEVPNHTNDERA
- other: formation of 6K2 punctate bodies [1]: increases
- other: viral replication, fold_change [2]: increases
- expression_or_secretion [3]: decreases
- other: viral replication [4]: increases
- other: viral replication, fold_change [5]: increases

B2: AtVSR4 (vacuolar sorting receptor 4): AtVSR4TM-myc (protein)
parent chain: MKQLLCYLPWLLLLSLVVSPFNEARFVVEKNSLSVTSPESIKGTHDSAIGNFGIPQYGGSMAGTVVYPKENQKSCKEFSDFSISFKSQPGALPTFLLVDRGDCFFALKVWNAQKAGASAVLVADNVDEPLITMDTPEEDVSSAKYIENITIPSALVTKGFGEKLKKAISGGDMVNLNLDWREAVPHPDDRVEYELWTNSNDECGVKCDMLMEFVKDFKGAAQILEKGGFTQFRPHYITWYCPHAFTLSRQCKSQCINKGRYCAPDPEQDFSSGYDGKDVVVENLRQLCVYKVANETGKPWVWWDYVTDFQIRCPMKEKKYNKDCAESVIKSLGIDSRKIDKCMGDPDADLDNPVLKEEQDAQVGKGTRGDVTILPTLVVNNRQYRGKLEKSAVLKALCSGFEESTEPAICLSTDMETNECLDNNGGCWQDKSANITACKDTFRGKVCVCPIVDGVRFKGDGYSHCEPSGPGRCTINNGGCWHEERDGHAFSACVDKDSVKCECPPGFKGDGVKKCEDINECKEKKACQCPECSCKNTWGSYECSCSGDLLYMRDHDTCISKTGSQVKSAWAAVWLIMLSLGLAAAGAYLVYKYRLRQYMDSEIRAIMAQYMPLDSQPEVPNHTNDERA
- expression_or_secretion [6]: decreases

B3: AtVSR4 (vacuolar sorting receptor 4): AtVSR4TMoe (protein)
parent chain: MKQLLCYLPWLLLLSLVVSPFNEARFVVEKNSLSVTSPESIKGTHDSAIGNFGIPQYGGSMAGTVVYPKENQKSCKEFSDFSISFKSQPGALPTFLLVDRGDCFFALKVWNAQKAGASAVLVADNVDEPLITMDTPEEDVSSAKYIENITIPSALVTKGFGEKLKKAISGGDMVNLNLDWREAVPHPDDRVEYELWTNSNDECGVKCDMLMEFVKDFKGAAQILEKGGFTQFRPHYITWYCPHAFTLSRQCKSQCINKGRYCAPDPEQDFSSGYDGKDVVVENLRQLCVYKVANETGKPWVWWDYVTDFQIRCPMKEKKYNKDCAESVIKSLGIDSRKIDKCMGDPDADLDNPVLKEEQDAQVGKGTRGDVTILPTLVVNNRQYRGKLEKSAVLKALCSGFEESTEPAICLSTDMETNECLDNNGGCWQDKSANITACKDTFRGKVCVCPIVDGVRFKGDGYSHCEPSGPGRCTINNGGCWHEERDGHAFSACVDKDSVKCECPPGFKGDGVKKCEDINECKEKKACQCPECSCKNTWGSYECSCSGDLLYMRDHDTCISKTGSQVKSAWAAVWLIMLSLGLAAAGAYLVYKYRLRQYMDSEIRAIMAQYMPLDSQPEVPNHTNDERA
- other: viral symptom severity in plants [7]: increases
- other: viral replication [8]: increases
